This test concerns the target short cTag (s-cTag) on a CD8α stalk (human). As to the kind of experiment: flow cytometry on cells; 293T cells transiently transfected with the mimic constructs (co-expressed EGFP), stained with APC-conjugated streptavidin 48 hr later; MedFI of EGFP-positive cells; staining of cTag8 293T cells reversed by 1 mM biotin, 1 hr, room temperature. Background: In flow cytometry, cells or beads pass a laser one at a time.

Chain of streptavidin allophycocyanin (APC) (P22629 25-183): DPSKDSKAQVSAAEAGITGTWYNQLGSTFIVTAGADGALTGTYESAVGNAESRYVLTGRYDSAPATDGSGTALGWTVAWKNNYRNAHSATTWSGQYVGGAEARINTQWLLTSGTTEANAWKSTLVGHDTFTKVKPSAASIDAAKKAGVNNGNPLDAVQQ

As to “streptavidin allophycocyanin (APC) (from UniProt P22629 25-183) (natural protein)”, the median fluorescence intensity (MedFI) came to 10000.

These data come from PMC6258877.
